± gives the half width of the 95% confidence interval.
Legend:
[1] = folding stability dG unfold from trypsin proteolysis; higher = more stable
Outline: (§1)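 Mini-proteins designed to be under 80 residues and free of cysteine were carried in a PA-tagged cDNA display construct and digested with trypsin and with chymotrypsin. Each protease was applied at 11 threefold-diluted concentrations, alongside a no-protease condition, before sequencing. K50 came from Bayesian fitting of the sequencing counts, and unfolding free energy was obtained by comparing it with a sequence-predicted unfolded-state K50 and a shared folded-state K50, for each protease separately or for both together. Designs were retained only if their AlphaFold2 dimer inter-PAE exceeded 15.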

[2] = folding stability dG unfold from chymotrypsin proteolysis; higher = more stable
Outline: as §1

[3] = folding stability dG unfold (combined trypsin and chymotrypsin); higher = more stable
Outline: as §1

Sequence | folding stability dG unfold [1] | folding stability dG unfold [2] | folding stability dG unfold [3]
SAGLKIVEDIRKKLEEEGYDVKVKYEIKPEPKDGKYIITIEVTIKDEKGNEVPIGKETIVIPLEEYEKSSAG [r5_413_JUSTAS] | 1.27 ± 0.18 kcal/mol | 2.74 ± 0.083 kcal/mol | 2.28 ± 0.16 kcal/mol
SAGLKVKIVKAEVKNGYLTLEVEVTGKDGSKKPFKIKIKLKPVPKPKPVFKFTKLPNGEIKVEVFDPSSAGG [r19_172_TrMRF] | 2.76 ± 0.062 kcal/mol | 3.212 ± 0.03 kcal/mol | 3.04 ± 0.08 kcal/mol
SAGLLEVLRKIAEELGWELTSVEVHELPDGSVVATGEFRKGDRTYRVDIRYDPETGRVEVRLEPVPVPESAG [r14_784_TrMRF] | 4.6 ± 0.22 kcal/mol | 5.51 ± 0.2 kcal/mol | > 6 kcal/mol
SAGLNIPPEMTVDELVEFLKSLGVKSYKVEKTEDPESYVVTFEFPDFTVVMTFHPDSVTITVVPKDEPLSAG [r5_899_TrMRF] | 3.14 ± 0.11 kcal/mol | 3.52 ± 0.061 kcal/mol | 3.34 ± 0.14 kcal/mol
SAGLPIPEGATVKTLESSESVEGNKTVKTDKIIVTFPDGSTKEVEVVTTYDPNGNPTTTYIVGNKKIPLSAG [r5_507_JUSTAS] | 1.45 ± 0.052 kcal/mol | 1.19 ± 0.058 kcal/mol | 1.32 ± 0.059 kcal/mol
SAGMAEKIKAELEKKGYKYEIEEVKDPNNDKTYLIVKIYPKDGKEYIIIFDKEKGEVIKKIPSDEPNILSAG [r5_938_JUSTAS] | 1.49 ± 0.13 kcal/mol | 1.59 ± 0.14 kcal/mol | 1.64 ± 0.24 kcal/mol
SAGMDLKIEEEEDPLSGSRLFRIELRDPDGKYNLTVVVLKENGKIKAVLVLRENTGEPLTLPELVELLESAG [r5_872_TrMRF] | 2.83 ± 0.19 kcal/mol | 3.773 ± 0.017 kcal/mol | 3.43 ± 0.086 kcal/mol
SAGMDPSDPNSITTLTTEVEPLPDGSTRVTTYTKLPDGTIVKNVTTLDPAGNVLTTTTTPIPPEALNASAGG [r19_285_JUSTAS] | 3.56 ± 0.17 kcal/mol | 3.85 ± 0.06 kcal/mol | 3.75 ± 0.096 kcal/mol
SAGMDVKELAKEAMEKYPPGDKEIEFEIPVGPRPFKVKIDYEPDPENGKPRPKITIENPDNGKKTEFTFSAG [r5_236_TrROS] | -1.07 ± 0.74 kcal/mol | 0.61 ± 0.19 kcal/mol | 0.11 ± 0.17 kcal/mol
SAGMEATIEIVGHPGDKEAIAVLRPEDKTVVIYKNKDGSYTVEVFEPNPARLIERKELPLEEAIKEALSAGG [r19_188_TrMRF] | -0.343 ± 0.12 kcal/mol | 1.45 ± 0.064 kcal/mol | 0.987 ± 0.13 kcal/mol
SAGMELELELEFRLEDGLEVRIRVKVRFDPETGELVIEEVRIEVRPLPPPPPLVLTDEELEALGLEPEESAG [r5_393_TrROS_Hall] | 3.6 ± 0.23 kcal/mol | 3.32 ± 0.13 kcal/mol | 3.6 ± 0.16 kcal/mol
SAGMELKVEIVAPKEVLLEKVKELEATIKKAFPKVKVEVEAKIEPLEGDEWKATVVIKIEPLPEDEPAESAG [r5_936_TrMRF] | 3.87 ± 0.27 kcal/mol | 3.59 ± 0.18 kcal/mol | 3.91 ± 0.78 kcal/mol
SAGMGSDVPVLTAVLSVLNPETGEEVTIEVPGRNDYGEGKLIRPVSPEDLLAAALAVADALLKDPSLKASAG [r5_426_TrMRF] | 1.36 ± 0.036 kcal/mol | 0.24 ± 0.22 kcal/mol | 0.804 ± 0.11 kcal/mol
SAGMIDVVVRVRLDVRPETVAEELRRRFPAIRRIEPVRVERRVEREPGRRYLLVHLRIELGDVPPELLRSAG [r5_326_TrMRF] | 1.78 ± 0.032 kcal/mol | 3.714 ± 0.021 kcal/mol | 3.33 ± 0.063 kcal/mol
SAGMIEITVEVPAEDMTEEELKELAEELARALREAGLPEDVKIVDVRVERLPDGTVRVTIKIEVKPPPSAGG [r19_87_TrROS_Hall] | 4.24 ± 0.26 kcal/mol | 3.59 ± 0.44 kcal/mol | 4.36 ± 0.39 kcal/mol
SAGMILTIRPEDGSEEIIPVPKEDIEKLIEDLEKKGIKVLSMTTSPDGVSTIPTQYPDGKKMTITVHLDSAG [r5_645_JUSTAS] | 0.707 ± 0.098 kcal/mol | 0.677 ± 0.22 kcal/mol | 0.677 ± 0.16 kcal/mol
SAGMITLPTRGPEELIERLRAIAEELGLSEEDIEQFLRDLAEHATIEQDGDLLLITFQPPVPALPGEPESAG [r5_717_TrMRF] | 1.23 ± 0.071 kcal/mol | 1.91 ± 0.037 kcal/mol | 1.74 ± 0.17 kcal/mol
SAGMITVPLPDGSVLELTVEKETVTTEVDPSTGKKRLVTETLMTNTGDLAVNGKVSPTTATLTTVVLESAGG [r19_246_JUSTAS] | -0.36 ± 0.067 kcal/mol | 0.373 ± 0.045 kcal/mol | 0.155 ± 0.069 kcal/mol
SAGMKAYIVSVEKNEDGTETIKLKVYFLDKNGKVVETKEITIKKGETIKITFPNGKTITVPAKDLKLVKSAG [r5_137_TrROS_Hall] | 2.02 ± 0.083 kcal/mol | 3.703 ± 0.033 kcal/mol | 3.24 ± 0.082 kcal/mol
SAGMKAYNIKELKIEKIEKKGNKIKIKISGKGKFYFKTFSNGSAIIYIKKTNKAYYIDSNGKIVYIKDTSAG [r5_348_TrMRF] | 1.75 ± 0.12 kcal/mol | 1.56 ± 0.13 kcal/mol | 1.76 ± 0.27 kcal/mol
SAGMKIEIEAEYDPESGTVTLHIKEEPEPGEPVEVKFPIKFLKDKVEIEAETEEPLDPEEILKKIKEELSAG [r5_478_TrMRF] | -0.161 ± 0.14 kcal/mol | 0.835 ± 0.12 kcal/mol | 0.513 ± 0.2 kcal/mol
SAGMKIEVKRLPGPGDYLFTLVDPELAARLKAVYPGLEEVIFPVGGPDSVPEEEIKERAEKELKELLLSAGG [r19_298_JUSTAS] | -0.0847 ± 0.17 kcal/mol | -0.66 ± 0.64 kcal/mol | -0.268 ± 0.31 kcal/mol
SAGMKIKIIKLDKNLEELSEEELKKLLEELAKKGLVEKKKDGKKVIPLTVIDKKTKKTYTFYIEIEKPPSAG [r5_243_TrROS_Hall] | 1.36 ± 0.041 kcal/mol | 2.72 ± 0.057 kcal/mol | 2.33 ± 0.17 kcal/mol
SAGMKIKVEVKETGETYEIEISEEELKKKLKEKFPEVKEITVVVEDPEDMSEEELREKALKAAEELLKSAGG [r19_298_TrROS_Hall] | 1.59 ± 0.067 kcal/mol | 2.49 ± 0.051 kcal/mol | 2.28 ± 0.18 kcal/mol
SAGMKITLPKGVKSIKVEEVNGKKVIYIEVDGKIFVYDLKTGKLYIYDKKTGEKKEITIKKGDTITLKSAGG [r19_138_TrROS_Hall] | 1.03 ± 0.028 kcal/mol | 1.79 ± 0.067 kcal/mol | 1.55 ± 0.07 kcal/mol
SAGMKITVVELDGKSPEELSEEELKKLAEELLKELFPDVKKVKKVTVKVERLPDGRLVLVEVEIEVEEPSAG [r5_526_TrROS_Hall] | 2.18 ± 0.13 kcal/mol | 1.03 ± 0.089 kcal/mol | 1.79 ± 0.13 kcal/mol

Reference: the supplement of paper PMC12764529
